The labels stand for the following.
B1: CL-33675_GS_1E3.4 (bispecific antibody, human IgG1, kappa, L234A L235A)
heavy: EVTLRESGPALVKPTQTLTLTCTFSGFSLSTYGMGVGWIRQPPGKALEWLANIWWDDDKYYNPSLKNRLTISKDTSKNQVVLTMTNMDPVDTATYYCARIESSGPKYSFDYWGQGTMVTVSSGGGGSGGGGSEIQLVQSGSELKKPGASVKVSCKASGYPFTNSGMYWVKQAPGQGLEYMGWINTEAGKPTYADDFKGRFVFSLDTSVSTAYLQISSLKAEDTAVYFCARWGYISDNSYGWFDYWGQGTLVTVSSASTKGPSVFPLAPSSKSTSGGTAALGCLVKDYFPEPVTVSWNSGALTSGVHTFPAVLQSSGLYSLSSVVTVPSSSLGTQTYICNVNHKPSNTKVDKKVEPKSCDKTHTCPPCPAPEAAGGPSVFLFPPKPKDTLMISRTPEVTCVVVDVSHEDPEVKFNWYVDGVEVHNAKTKPREEQYNSTYRVVSVLTVLHQDWLNGKEYKCKVSNKALPAPIEKTISKAKGQPREPQVYTLPPSREEMTKNQVSLTCLVKGFYPSDIAVEWESNGQPENNYKTTPPVLDSDGSFFLYSKLTVDKSRWQQGNVFSCSVMHEALHNAYTQKSLSLSPGK
light: EIVLTQSPGTLSLSPGERATLSCRASSGSIWYSFVSWYQQKPGQAPRLLIYADDQRASGIPDRFSGSGSGTDFTLTISRLEPEDFAVYYCQSYGINIDVVFGGGTKVEIKGGSGGGGSGGATQLTQSPSSLSASVGDRVTISCRASEGVYSYMHWYQQKPGKQPKLLIYKASNLASGVPSRFSGSGSGTDFTLTISSLQPEDFATYFCHQNWNDPLTFGQGTKLEIKRTVAAPSVFIFPPSDEQLKSGTASVVCLLNNFYPREAKVQWKVDNALQSGNSQESVTEQDSKDSTYSLSSTLTLSKADYEKHKVYACEVTHQGLSSPVTKSFNRGEC
B2: CL-33675_GS_9E10.1 (bispecific antibody, human IgG1, kappa, L234A L235A)
heavy: EVTLRESGPALVKPTQTLTLTCTFSGFSLSTYGMGVGWIRQPPGKALEWLANIWWDDDKYYNPSLKNRLTISKDTSKNQVVLTMTNMDPVDTATYYCARIESSGPKYSFDYWGQGTMVTVSSGGGGSGGGGSEIQLVQSGSELKKPGASVKVSCKASGYTFTNYGMYWVKQAPGQGLEYMGWIDTETGRPTYADDFKGRFVFSLDTSVSTAYLQISSLKAEDTAVYFCARWSGDTTGIRGPWFAYWGQGTLVTVSSASTKGPSVFPLAPSSKSTSGGTAALGCLVKDYFPEPVTVSWNSGALTSGVHTFPAVLQSSGLYSLSSVVTVPSSSLGTQTYICNVNHKPSNTKVDKKVEPKSCDKTHTCPPCPAPEAAGGPSVFLFPPKPKDTLMISRTPEVTCVVVDVSHEDPEVKFNWYVDGVEVHNAKTKPREEQYNSTYRVVSVLTVLHQDWLNGKEYKCKVSNKALPAPIEKTISKAKGQPREPQVYTLPPSREEMTKNQVSLTCLVKGFYPSDIAVEWESNGQPENNYKTTPPVLDSDGSFFLYSKLTVDKSRWQQGNVFSCSVMHEALHNAYTQKSLSLSPGK
light: EIVLTQSPGTLSLSPGERATLSCRASSGSIWYSFVSWYQQKPGQAPRLLIYADDQRASGIPDRFSGSGSGTDFTLTISRLEPEDFAVYYCQSYGINIDVVFGGGTKVEIKGGSGGGGSGGDIRMTQSPSSLSASVGDRVTIECLASEDIYSDLAWYQQKPGKSPKLLIYNANGLQNGVPSRFSGSGSGTDYSLTISSLQPEDVATYFCQQYNYFPGTFGQGTKLEIKRTVAAPSVFIFPPSDEQLKSGTASVVCLLNNFYPREAKVQWKVDNALQSGNSQESVTEQDSKDSTYSLSSTLTLSKADYEKHKVYACEVTHQGLSSPVTKSFNRGEC
B3: CL-33675_GS_9E10.6 (bispecific antibody, human IgG1, kappa, L234A L235A)
heavy: EVTLRESGPALVKPTQTLTLTCTFSGFSLSTYGMGVGWIRQPPGKALEWLANIWWDDDKYYNPSLKNRLTISKDTSKNQVVLTMTNMDPVDTATYYCARIESSGPKYSFDYWGQGTMVTVSSGGGGSGGGGSEVQLVQSGAEVKKPGSSVKVSCKASGYTFTNYGMYWVRQAPGQGLEWMGWIDTETGRPTYADDFKGRFTFTADKSTSTAYMELSSLRSEDTAVYYCARWSGDTTGIRGPWFAYWGQGTLVTVSSASTKGPSVFPLAPSSKSTSGGTAALGCLVKDYFPEPVTVSWNSGALTSGVHTFPAVLQSSGLYSLSSVVTVPSSSLGTQTYICNVNHKPSNTKVDKKVEPKSCDKTHTCPPCPAPEAAGGPSVFLFPPKPKDTLMISRTPEVTCVVVDVSHEDPEVKFNWYVDGVEVHNAKTKPREEQYNSTYRVVSVLTVLHQDWLNGKEYKCKVSNKALPAPIEKTISKAKGQPREPQVYTLPPSREEMTKNQVSLTCLVKGFYPSDIAVEWESNGQPENNYKTTPPVLDSDGSFFLYSKLTVDKSRWQQGNVFSCSVMHEALHNAYTQKSLSLSPGK
light: B2 light with E142T, S192T
B4: 9E8.4_GS_9E10.1 (bispecific antibody, human IgG1, kappa, L234A L235A)
heavy: B2 heavy with S103I, P105T, K106T
light: EFVLTQSPGTLSLSPGERATLSCERSSGDIGDSYVSWYQQKPGQAPRLVIYADDQRPSGIPDRFSGSGSGTDFTLTISRLEPEDFAVYYCQSYDINIDIVFGGGTKVEIKGGSGGGGSGGDIRMTQSPSSLSASVGDRVTIECLASEDIYSDLAWYQQKPGKSPKLLIYNANGLQNGVPSRFSGSGSGTDYSLTISSLQPEDVATYFCQQYNYFPGTFGQGTKLEIKRTVAAPSVFIFPPSDEQLKSGTASVVCLLNNFYPREAKVQWKVDNALQSGNSQESVTEQDSKDSTYSLSSTLTLSKADYEKHKVYACEVTHQGLSSPVTKSFNRGEC
B5: 9E8.4_GS_9E10.6 (bispecific antibody, human IgG1, kappa, L234A L235A)
heavy: B3 heavy with S103I, P105T, K106T
light: B4 light with E142T, S192T
B6: 1E3.4_GS_CL-33675 (bispecific antibody, human IgG1, kappa, L234A L235A)
heavy: EIQLVQSGSELKKPGASVKVSCKASGYPFTNSGMYWVKQAPGQGLEYMGWINTEAGKPTYADDFKGRFVFSLDTSVSTAYLQISSLKAEDTAVYFCARWGYISDNSYGWFDYWGQGTLVTVSSGGGGSGGGGSEVTLRESGPALVKPTQTLTLTCTFSGFSLSTYGMGVGWIRQPPGKALEWLANIWWDDDKYYNPSLKNRLTISKDTSKNQVVLTMTNMDPVDTATYYCARIESSGPKYSFDYWGQGTMVTVSSASTKGPSVFPLAPSSKSTSGGTAALGCLVKDYFPEPVTVSWNSGALTSGVHTFPAVLQSSGLYSLSSVVTVPSSSLGTQTYICNVNHKPSNTKVDKKVEPKSCDKTHTCPPCPAPEAAGGPSVFLFPPKPKDTLMISRTPEVTCVVVDVSHEDPEVKFNWYVDGVEVHNAKTKPREEQYNSTYRVVSVLTVLHQDWLNGKEYKCKVSNKALPAPIEKTISKAKGQPREPQVYTLPPSREEMTKNQVSLTCLVKGFYPSDIAVEWESNGQPENNYKTTPPVLDSDGSFFLYSKLTVDKSRWQQGNVFSCSVMHEALHNAYTQKSLSLSPGK
light: ATQLTQSPSSLSASVGDRVTISCRASEGVYSYMHWYQQKPGKQPKLLIYKASNLASGVPSRFSGSGSGTDFTLTISSLQPEDFATYFCHQNWNDPLTFGQGTKLEIKGGSGGGGSGGEIVLTQSPGTLSLSPGERATLSCRASSGSIWYSFVSWYQQKPGQAPRLLIYADDQRASGIPDRFSGSGSGTDFTLTISRLEPEDFAVYYCQSYGINIDVVFGGGTKVEIKRTVAAPSVFIFPPSDEQLKSGTASVVCLLNNFYPREAKVQWKVDNALQSGNSQESVTEQDSKDSTYSLSSTLTLSKADYEKHKVYACEVTHQGLSSPVTKSFNRGEC
B7: 1E3.4_GS_9E8.4 (bispecific antibody, human IgG1, kappa, L234A L235A)
heavy: B6 heavy with S236I, P238T, K239T
light: ATQLTQSPSSLSASVGDRVTISCRASEGVYSYMHWYQQKPGKQPKLLIYKASNLASGVPSRFSGSGSGTDFTLTISSLQPEDFATYFCHQNWNDPLTFGQGTKLEIKGGSGGGGSGGEFVLTQSPGTLSLSPGERATLSCERSSGDIGDSYVSWYQQKPGQAPRLVIYADDQRPSGIPDRFSGSGSGTDFTLTISRLEPEDFAVYYCQSYDINIDIVFGGGTKVEIKRTVAAPSVFIFPPSDEQLKSGTASVVCLLNNFYPREAKVQWKVDNALQSGNSQESVTEQDSKDSTYSLSSTLTLSKADYEKHKVYACEVTHQGLSSPVTKSFNRGEC

Consider seven molecules from US20170015742A1 (published 2017).

Substitutions are numbered along the chain they refer to.

The target of one assay is recombinant human PDGF-BB (human, UniProt P01127 82-190). In words: cell-based or functional assay.
recombinant human PDGF-BB, sequence (P01127 82-190 limits assumed): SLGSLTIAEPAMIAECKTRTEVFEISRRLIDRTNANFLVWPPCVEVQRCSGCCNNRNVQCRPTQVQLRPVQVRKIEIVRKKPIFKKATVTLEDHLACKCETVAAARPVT
With B1, the “Potency IC50 (nM) NIH-3T3 hPDGF-BB” value came out at 0.039 nM.

Turning to B2, the “Potency IC50 (nM) NIH-3T3 hPDGF-BB” value is 0.031 nM.

On to B3, for which the “Potency IC50 (nM) NIH-3T3 hPDGF-BB” value amounted to 0.037 nM.

Regarding B4, the “Potency IC50 (nM) NIH-3T3 hPDGF-BB” value came out at 0.317 nM.

As to B5, the “Potency IC50 (nM) NIH-3T3 hPDGF-BB” value came out at 0.213 nM.

With B6, the “Potency IC50 (nM) NIH-3T3 hPDGF-BB” value was determined as 0.037 nM.

On to B7, for which the “Potency IC50 (nM) NIH-3T3 hPDGF-BB” value is 0.329 nM.

In another assay the target is recombinant human VEGF165 (human, UniProt P15692 207-395). The experiment in a line: cell-based or functional assay.
recombinant human VEGF165, sequence (P15692 other isoform, or with tags, fused parts or gaps limits assumed): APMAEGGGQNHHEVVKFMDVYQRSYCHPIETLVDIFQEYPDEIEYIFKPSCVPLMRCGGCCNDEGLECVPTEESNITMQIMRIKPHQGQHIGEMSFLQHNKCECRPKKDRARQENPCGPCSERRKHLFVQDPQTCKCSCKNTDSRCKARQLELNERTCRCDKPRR
With B1, the “Potency IC50 (nM) HMVEC-d hVEGF165” value came to 0.372 nM.

Regarding B2, the “Potency IC50 (nM) HMVEC-d hVEGF165” value was 0.064 nM.

Turning to B3, the “Potency IC50 (nM) HMVEC-d hVEGF165” value was determined as 0.082 nM.

As for B4, the “Potency IC50 (nM) HMVEC-d hVEGF165” value stood at 0.073 nM.

In the case of B5, the “Potency IC50 (nM) HMVEC-d hVEGF165” value came out at 0.132 nM.

On to B6, for which the “Potency IC50 (nM) HMVEC-d hVEGF165” value was found to be 0.067 nM.

As for B7, the “Potency IC50 (nM) HMVEC-d hVEGF165” value came to 0.092 nM.
